Measured values: the supplement of paper PMC9170038

Tested on: MS2 coat protein
Assay: apparent KD of MS2 coat protein; designed switch direction (-1 OFF switch, 1 ON switch): -1; higher = weaker reporter binding
Settings: Eterna round: R98
Method: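 RNA-MaP: designed FMN/MS2 RNA switches (84 nt design region) are transcribed on-chip within common flanks and titrated with SNAP-549-labelled MS2 coat protein (about 1-3000 nM) in 100 mM Tris pH 7.5, 80 mM KCl, 4 mM MgCl2, without or with 200 uM FMN. Median apparent KD per design; activation ratio = KD,OFF / KD,ON.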

“UAUAUUUAGGCAGGAUAUACAUGUAUAUAUAAUUUUUUAUAUAUUAUUACAUGAGGAUCACCCAUGUAGAAGGGCCUUAUUAUA [LRO040_Exclusion NG 2]” was tested, and the “apparent KD of MS2 coat protein” value (input ligand: FMN 200 uM) was 62.9 nM and the “apparent KD of MS2 coat protein” value (input ligand: none) was 51.2 nM.

For “AGAGCCUCGUGAGGAUAUACAUGAGGAUCACCCAUGUAAUAGGAUGAACGGAGGAAACUCCGAAUGUAGAAGGCACGAGGCUCA [Exclusion NG 2/11-B1]”, the “apparent KD of MS2 coat protein” value (input ligand: FMN 200 uM) was 686 nM and the “apparent KD of MS2 coat protein” value (input ligand: none) was 74.5 nM.

With “UGUUGUUACGCAGGAUAUUGCCAACAGGCGGUAGGAUAUCCGAAAGGAGAAGGAUCGCCAACAGGCGAGAAGGGCGGGUUAACA [pwkr exNG2 2xF7 2FMN.10.3]” the “apparent KD of MS2 coat protein” value (input ligand: FMN 200 uM) was 26.7 nM and the “apparent KD of MS2 coat protein” value (input ligand: none) was 21.3 nM.
